Results: patent US20190010233A1

Legend:
[1] = target: recombinant human PD-1^ECD-hFc protein (human) (UniProt Q15116); experiment: ELISA, coated PD-1-hFc, 1 µg/mL
[2] = target: recombinant human PD-1^ECD-hFc protein (human) (UniProt Q15116); experiment: ELISA, coated PD-1-hFc, 0.2 µg/mL
[3] = target: recombinant human PD-1^ECD-hFc protein (human) (UniProt Q15116); experiment: ELISA, coated PD-1-hFc, 0.04 µg/mL
[4] = target: recombinant human PD-1^ECD-hFc protein (human) (UniProt Q15116); experiment: ELISA, coated PD-1-hFc, 0.008 µg/mL
[5] = target: recombinant human PD-1^ECD-hFc protein (human) (UniProt Q15116); experiment: ELISA, coated PD-1-hFc, 0.0001 µg/mL
[6] = target: recombinant human PD-1^ECD-hFc protein (human) (UniProt Q15116); experiment: ELISA, coated PD-1-hFc, 0.0003 µg/mL
[7] = target: recombinant human PD-1^ECD-hFc protein (human) (UniProt Q15116); experiment: ELISA, coated PD-1-hFc, 0.0016 µg/mL
[8] = target: recombinant human PD-1^ECD-hFc protein (human) (UniProt Q15116); experiment: ELISA, coated PD-1-hFc, 0.00001 µg/mL

Sequence of recombinant human PD-1^ECD-hFc protein (human) (Q15116 25-167): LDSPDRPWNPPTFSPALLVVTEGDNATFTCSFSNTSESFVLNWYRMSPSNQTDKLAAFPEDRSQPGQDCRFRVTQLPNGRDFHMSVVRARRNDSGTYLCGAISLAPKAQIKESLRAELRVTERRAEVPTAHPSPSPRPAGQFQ

OD450 nm [1]: 0.51 | OD450 nm [2]: 0.1 | OD450 nm [3]: 0.49 | OD450 nm [4]: 0.135 | OD450 nm [5]: 0.12 | OD450 nm [6]: 0.255 | OD450 nm [7]: 0.19 | OD450 nm [8]: 0.09
Substance: control protein (biotinylated non-PD-L1^ECD-hFc)
